Results: paper PMC6636993

Tests used:
[1] = target: PVY coat protein N-terminal deletion mutant ΔN49 (potato virus Y (NTN strain)); assay: SEC-MALS
[2] = target: PVY coat protein N-terminal deletion mutant ΔN49 (potato virus Y (NTN strain)); assay: cryo-EM 2D class averages

**Q.** With “PVY coat protein N-terminal deletion mutant ΔN49 (domain or fragment)” as the substance, how does the stoichiometry N [1] read?
**A.** 8

**Q.** What about the stoichiometry N [2] of the same substance?
**A.** 8
